Laboratory results from US20210269525A1 (BIOCYTOGEN PHARMACEUTICALS BEIJING, published 2021).

T1: Cynomolgus CD3 epsilon Protein, His Tag (Acrobiosystems, Cat #CDE-05226) (cynomolgus (Macaca fascicularis), UniProt Q95LI5 22-117)
T1 construct: also called monkey CD3e; not shown: His tag
T1 sequence: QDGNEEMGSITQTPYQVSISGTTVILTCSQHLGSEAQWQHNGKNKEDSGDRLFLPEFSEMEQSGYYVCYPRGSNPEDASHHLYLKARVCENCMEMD


Assays:
[1] = biological target: T2, human CD3e (T-cell surface glycoprotein CD3 epsilon chain) (human, UniProt P07766 23-207); test: cell-based or functional assay
[2] = biological target: T3, Histidine-tagged human CD3e protein (human, UniProt P07766 23-126); test: SPR (Biacore), human CD3e
T3 construct: also called hCD3e-His; not shown: His tag

[3] = biological target: T1, Cynomolgus CD3 epsilon Protein, His Tag …; test: SPR (Biacore), cynomolgus CD3e His tag
Procedure: The binding affinity of the anti-hCD3e antibodies with monkey CD3e (Cynomolgus CD3 epsilon Protein (SEQ ID NO: 39 AA Gln 22-Asp 117), His Tag, Acrobiosystems, Cat #CDE-05226) were also measured using surface plasmon resonance (SPR) using Biacore (Biacore, INC, Piscataway N.J.) by the methods as described in the examples.

[4] = biological target: T2, human CD3e (T-cell surface glycoprotein …); test: flow cytometry, human PBMC, antibody 1 ug/mL, anti-human IgG Fc-Alexa Fluor647 (1:500), anti-hTcRβ-PerCP (1:30)
Procedure: (§1) PBMC cells were collected from a human subject. After being thawed, the cells were cultured for 3-4 hours. The medium was then discarded, and the cells were resuspended in phosphate-buffered saline (PBS). The cell concentration was then adjusted to 2×10⁶/25 μl PBS.
(§2) A 96-well plate was prepared. 25 ul of cell suspension was added to each well. […] The cells and the antibodies were incubated. After centrifuge, the residues were discarded. The samples were washed again. 25 ul of PBS was then added to each well to resuspend cells.
(§3) Anti-human IgG Fc-Alexa Fluror647 (1:500) and anit-hTcRβ PerCP (1:30) were then added to each well. The cells and the antibodies were incubated and then the cells were washed again by PBS. 300 ul of PBS was then added to each well to resuspend the cells. FACS was performed.

[5] = biological target: T2, human CD3e (T-cell surface glycoprotein …); test: flow cytometry, human PBMC, antibody 0.1 ug/mL, anti-human IgG Fc-Alexa Fluor647 (1:500), anti-hTcRβ-PerCP (1:30)
Procedure: as §1, §2, §3

[6] = biological target: T2, human CD3e (T-cell surface glycoprotein …); test: flow cytometry, human PBMC, antibody 0.01 ug/mL, anti-human IgG Fc-Alexa Fluor647 (1:500), anti-hTcRβ-PerCP (1:30)
Procedure: as §1, §2, §3

[7] = biological target: T4, monkey CD3e (Macaca fascicularis) on PBMC (Macaca fascicularis, UniProt Q95LI5 22-198); test: flow cytometry, Macaca fascicularis PBMC, antibody concentration not given, anti-human IgG Fc-Alexa Fluor647 (1:500), anti-hTcRβ-PerCP (1:30)
T4 construct: Target on PBMC from Macaca fascicularis; also called mfCD3e; monkey PBMC
Procedure: A 96-well plate was prepared. 25 ul of cell suspension was added to each well. Anti-hCD3 antibodies were added to the 96-well plate. The cells and the antibodies were incubated for 15 minutes at 4° C. 185 ul PBS was then added to each well. After centrifuge at 2000 rpm for 5 minutes, the medium was discarded. The samples were washed again. 25 ul of PBS was then added to resuspend cells.
Anti-human IgG Fc-Alexa Fluror647 (1:500) and anti-hTcRβ PerCP (1:30) were then added to each well. The cells and the antibodies were incubated for 15 minutes at 4° C. 185 ul PBS was then added to each well. After centrifuge, the residues were discarded. The samples were washed again. 25 ul of PBS was then added to resuspend cells. […] In contrast, anti-hTcRβ PerCP cannot bind to monkey PBMC.

Row | Binder | EC50, luciferase of Jurkat-Luc-NFAT cells; antibody from supernatant [1] | EC50, luciferase of Jurkat-Luc-NFAT cells; purified antibody [1] | Kd [2] | koff [2] | kon [2] | Kd [3] | koff [3] | kon [3] | upper left quadrant, percent of cells AF647+ / hTcRβ-PerCP- [4] | upper right quadrant, percent of cells AF647+ / hTcRβ-PerCP+ [4] | upper left quadrant, percent of cells AF647+ / hTcRβ-PerCP- [5] | upper right quadrant, percent of cells AF647+ / hTcRβ-PerCP+ [5] | upper left quadrant, percent of cells AF647+ / hTcRβ-PerCP- [6] | upper right quadrant, percent of cells AF647+ / hTcRβ-PerCP+ [6] | upper left quadrant, percent of cells AF647+ / hTcRβ-PerCP- [7] | upper right quadrant, percent of cells AF647+ / hTcRβ-PerCP+ [7]
1 | 10A4-H1K1-IgG1-LALA (antibody, V domains shown, Humanized; human IgG1 with LALA mutations; also called H1K1 (humanized 10A4)) VH: QVQLVQSGAEVKKPGASVKVSCKASGYTFTSYYIHWVRQAPGQRLEFIGWIYPGNVNAKYNEKFKGRVTITTDKSASTAYMELSSLRSEDTAVYYCAIKGGNYDWGQGTLVTVSS VL: DVVMTQSPLSLPVTLGQPASISCQSSQSLLDSDGKTYLNWLQQRPGQSPRRLIYLVSKLGSGVPDRFSGSGSGTDFTLKISRVEAEDVGVYYCWQGTHFPRTFGGGTKVEIK | 0.294 µg/mL | 0.524 µg/mL | 1.86 nM | 0.000105 s⁻¹ | 56300 M⁻¹ s⁻¹ | 13.2 nM | 0.000597 s⁻¹ | 45200 M⁻¹ s⁻¹ | 11.9% | 77.6% | 9.8% | 50.7% | 2.69% | 10.8% | 48.4% | 2.33%
2 | 10A4-H1K3-IgG1-LALA (antibody, V domains shown, Humanized; human IgG1 with LALA mutations; also called H1K3 (humanized 10A4)) VH: QVQLVQSGAEVKKPGASVKVSCKASGYTFTSYYIHWVRQAPGQRLEFIGWIYPGNVNAKYNEKFKGRVTITTDKSASTAYMELSSLRSEDTAVYYCAIKGGNYDWGQGTLVTVSS VL: not shown | 0.393 µg/mL | 0.583 µg/mL | 2.21 nM | 0.000133 s⁻¹ | 60200 M⁻¹ s⁻¹ | 11.8 nM | 0.000508 s⁻¹ | 43100 M⁻¹ s⁻¹ | 11% | 79.2% | 10.2% | 56.2% | 2.67% | 16.6% | 46% | 1.54%
3 | 10A4-H2K1-IgG1-LALA (antibody, V domains shown, Humanized; human IgG1 with LALA mutations; also called H2K1 (humanized 10A4)) VH: QVQLVQSGAEVKKPGASVKISCKASGYTFTSYYIHWVRQAPGQRLEFIGWIYPGNVNAKYNEKFKGRATITTDKSASTAYMELSSLRSEDTAVYYCAIKGGNYDWGQGTLVTVSS VL: DVVMTQSPLSLPVTLGQPASISCQSSQSLLDSDGKTYLNWLQQRPGQSPRRLIYLVSKLGSGVPDRFSGSGSGTDFTLKISRVEAEDVGVYYCWQGTHFPRTFGGGTKVEIK | 0.266 µg/mL | 0.313 µg/mL | 1.84 nM | 0.000111 s⁻¹ | 60500 M⁻¹ s⁻¹ | 4.66 nM | 0.000261 s⁻¹ | 55900 M⁻¹ s⁻¹ | 11.6% | 76.8% | 10.3% | 59.4% | 2.67% | 14.8% | 49.4% | 2.32%
